{
  "source": "paper doi:10.1101/2025.09.03.673926",
  "key": {"[1]": {"biological_target": "TgSNF2LΔHydra (aa 1 to 1556 with an internal deletion between aa 880 and 1040) (Toxoplasma gondii)", "assay": "SEC-MALS"}, "[2]": {"biological_target": "TgSNF2LΔHydra (aa 1 to 1556 with an internal deletion between aa 880 and 1040) (Toxoplasma gondii)", "assay": "mass photometry"}, "[3]": {"biological_target": "TgSNF2L Hydra domain (886-1057) (Toxoplasma gondii)", "assay": "SEC-MALS"}, "[4]": {"biological_target": "TgSNF2L Hydra domain (886-1057) (Toxoplasma gondii)", "assay": "native gel or EMSA"}, "[5]": {"biological_target": "TgSNF2L Hydra domain (886-1057) (Toxoplasma gondii)", "assay": "mass photometry"}, "[6]": {"biological_target": "TgSNF2L (aa 1 to 1556) (Toxoplasma gondii)", "assay": "SEC-MALS"}, "[7]": {"biological_target": "TgSNF2L (aa 1 to 1556) (Toxoplasma gondii)", "assay": "mass photometry"}},
  "note": "Several values for one entry are separate records, joined by “and”; a condition that tells them apart may be missing. Identical values can stand only once.",
  "data": [
    {"substance": "TgSNF2LΔHydra (aa 1 to 1556 with an internal deletion between aa 880 and 1040) (enzyme)", "values": [
      {"measurement": "stoichiometry N", "setting": "[1]", "value": 2},
      {"measurement": "percent of particles monomeric and dimeric", "setting": "[2]", "value": 71, "unit": "%"},
      {"measurement": "percent of particles tetrameric and higher", "setting": "[2]", "value": 19, "unit": "%"}
    ]},
    {"substance": "TgSNF2L Hydra domain (886-1057) (domain or fragment)", "values": [
      {"measurement": "stoichiometry N", "setting": "[3]", "value": 10},
      {"measurement": "stoichiometry N", "setting": "[4]", "value": "10 and 20"},
      {"measurement": "stoichiometry N", "setting": "[5]", "value": 10}
    ]},
    {"substance": "TgSNF2L (aa 1 to 1556) (enzyme)", "values": [
      {"measurement": "stoichiometry N", "setting": "[6]", "value": 4},
      {"measurement": "percent of particles dimeric", "setting": "[7]", "value": 11, "unit": "%"},
      {"measurement": "percent of particles monomeric", "setting": "[7]", "value": 22, "unit": "%"},
      {"measurement": "percent of particles tetrameric and bigger", "setting": "[7]", "value": 59, "unit": "%"}
    ]}
  ]
}
